From publication PMC3404891

Key:
[1] = target: EGF (Homo sapiens) (UniProt P01133); test: functional ELISA; conditions: cited from earlier work
[2] = target: T1, recombinant human EGFR/ErbB1 Fc Chimera (human, UniProt P00533 25-645); test: surface capture, Sypro Ruby fluorescence
[3] = target: T1, recombinant human EGFR/ErbB1 Fc Chimera; test: nanogap break-junction I-V measurement

EGF (Homo sapiens), sequence (P01133 971-1023): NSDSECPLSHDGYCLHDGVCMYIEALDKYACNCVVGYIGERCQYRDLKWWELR

EGFR/ErbB1 Fc chimera (from UniProt P00533)
Kd [1]: < 8 nM

B1: extended anti-EGFR RNA aptamer hybridized to surface-anchored capture ssDNA (mixed)
RNA: GGCGCUCCGACCUUAGUCUCUGUGCCGCUAUAAUGCACGGAUUUAAUCGCCGUAGAAAAGCAUGUCAAAGCCGGAACCGUGUAGCACAGCAGAGAAUUAAAUGCCCGCCAUGACCAG
DNA: CTGGTCATGGCGGGCATTTAATTC
modifications: 5'-amine on DNA strand S3
binding result [2]: binds

B2: extended mutant (scrambled) aptamer hybridized to surface-anchored capture ssDNA (mixed)
RNA: GGCGCUCCGACCUUAGUCUCUGUUCCCACAUCAUGCACAAGGACAAUUCUGUGCAUCCAAGGAGGAGUUCUCGGAACCGUGUAGCACAGCAGAGAAUUAAAUGCCCGCCAUGACCAG
DNA: CTGGTCATGGCGGGCATTTAATTC
modifications: 5'-amine on DNA strand S3
binding result [3]: no binding
